From article doi:10.1101/2022.12.22.521671 (bioRxiv, 2022) come the findings set out here.

Holding throughout (test): BLI
The target in test [1] is biotinylated IQN17 (HIV-1 HXB2) (UniProt P04578).
In test [2] the target is biotinylated IQN22 (HIV-1 HXB2) (UniProt P04578).
The next test has as its target T1, biotinylated IQN17 (HIV-1 HXB2 gp41 565-581 fused to …, chimera, not fully specified; biotin (position not given)).
T1 chain: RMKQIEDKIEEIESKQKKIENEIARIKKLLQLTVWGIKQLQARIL

Another test has as its target T2, biotinylated IQN22 (HIV-1 HXB2 gp41 565-586 fused to …, chimera, not fully specified; biotin (position not given)).
T2 chain: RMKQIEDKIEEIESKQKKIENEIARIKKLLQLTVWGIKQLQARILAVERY

Consider PIE12 (peptide), for which the Kd (in general, the free concentration of one partner at which half of the binding sites on the other are occupied at equilibrium, for simple one-to-one binding) worked out at 3 nM in test [1] and 2 nM in test [2].

B1: D5 Fab (Fab, V domains shown)
VH: QVQLVQSGAEVRKPGASVKVSCKASGDTFSSYAISWVRQAPGQGLEWMGGIIPIFGTANYAQAFQGRVTITANESTSTAYMELSSLRSEDTAIYYCARDNPTLLGSDYWGAGTLVTVSS
VL: DIQMTQSPSTLSASIGDRVTITCRASEGIYHWLAWYQQKPGKAPKLLIYKASSLASGAPSRFSGSGSGTDFTLTISSLQPDDFATYYCQQYSNYPLTFGGGTKLEIK
As for B1, the Kd with biotinylated IQN17 was found to be 14 nM; with biotinylated IQN22 it was 5 nM.
